Data reported in US20170334951A1 (Memorial Sloan Kettering, published 2017).

Experiments:
Assay in all cases: cell-based or functional assay
HLA-A0101 = HLA-A0101 (human)
HLA-B3503 = HLA-B3503 (human)
HLA-A0201 = HLA-A0201 (human)
HLA-DRB10402 = HLA-DRB10402 (human)
HLA-DRB10101 = HLA-DRB10101 (human)
HLA-A2402 = HLA-A2402 (human)
HLA-B3801 = HLA-B3801 (human)
HLA-B3508 = HLA-B3508 (human)
HLA-C1701 = HLA-C1701 (human)
HLA-B3501 = HLA-B3501 (human)
HLA-B4001 = HLA-B4001 (human)
HLA-B5701 = HLA-B5701 (human)
HLA-B0702 = HLA-B0702 (human)
HLA-DRB10401 = HLA-DRB10401 (human)
HLA-B4402 = HLA-B4402 (human)
HLA-B3802 = HLA-B3802 (human)
HLA-B4701 = HLA-B4701 (human)
HLA-B3901 = HLA-B3901 (human)
HLA-DRB11104 = HLA-DRB11104 (human)
HLA-A3101 = HLA-A3101 (human)
HLA-A0203 = HLA-A0203 (human)
HLA-C0401 = HLA-C0401 (human)
HLA-A6901 = HLA-A6901 (human)

NQGYSTVTF [WT1 146-154 NQGYSTVTF]
Cytotoxic CTL response, % (at 50:1) E:T ratio vs WT1+ allo APC with restricting HLA allele loaded with WT1 peptide (HLA-A0101): 15%

RTPYSSDNL [WT1 218-226 RTPYSSDNL]
Cytotoxic CTL response, % (at 50:1) E:T ratio vs WT1+ allo APC with restricting HLA allele loaded with WT1 peptide (HLA-B3503): 31%

GGCALPVSGA [WT1 22-31 GGCALPVSGA]
Cytotoxic CTL response, % (at 50:1) E:T ratio vs WT1+ allo APC with restricting HLA allele loaded with WT1 peptide (HLA-A0201): 25%

CMTWNQMNLGATLKG [WT1 235-249 CMTWNQMNLGATLKG]
Cytotoxic CTL response, % (at 50:1) E:T ratio vs WT1+ allo APC with restricting HLA allele loaded with WT1 peptide (HLA-DRB10402): 15%

PGCLQQPEQQG [WT1 (-47)-(-37) PGCLQQPEQQG]
Cytotoxic CTL response, % (at 50:1) E:T ratio vs WT1+ allo APC with restricting HLA allele loaded with WT1 peptide (HLA-DRB10101): 25%

LDFAPPGAS [WT1 38-46 LDFAPPGAS]
Cytotoxic CTL response, % (at 50:1) E:T ratio vs WT1+ allo APC with restricting HLA allele loaded with WT1 peptide (HLA-A0201): 62%

PAPPPPPPP [WT1 58-66 PAPPPPPPP]
Cytotoxic CTL response, % (at 50:1) E:T ratio vs WT1+ allo APC with restricting HLA allele loaded with WT1 peptide (HLA-A0201): 18%

NQMNLGATL [WT1 239-248 NQMNLGATL]
Cytotoxic CTL response, % (at 50:1) E:T ratio vs WT1+ allo APC with restricting HLA allele loaded with WT1 peptide (HLA-A2402): 2%

CTGSQALLL [WT1 209-217 CTGSQALLL]
Cytotoxic CTL response, % (at 50:1) E:T ratio vs WT1+ allo APC with restricting HLA allele loaded with WT1 peptide (HLA-A0101): 26%

NLGATLKGV [WT1 242-250 NLGATLKGV]
Cytotoxic CTL response, % (at 50:1) E:T ratio vs WT1+ allo APC with restricting HLA allele loaded with WT1 peptide (HLA-A0201): 14% | Cytotoxic CTL response, % (at 50:1) E:T ratio vs WT1+ allo APC with restricting HLA allele loaded with WT1 peptide (HLA-A0101): 17%

HHAAQFPNH [WT1 166-174 HHAAQFPNH]
Cytotoxic CTL response, % (at 50:1) E:T ratio vs WT1+ allo APC with restricting HLA allele loaded with WT1 peptide (HLA-B3801): 17%

WNQMNLGAT [WT1 238-246 WNQMNLGAT]
Cytotoxic CTL response, % (at 50:1) E:T ratio vs WT1+ allo APC with restricting HLA allele loaded with WT1 peptide (HLA-B3508): 21% | Cytotoxic CTL response, % (at 50:1) E:T ratio vs WT1+ allo APC with restricting HLA allele loaded with WT1 peptide (HLA-C1701): 7% | Cytotoxic CTL response, % (at 50:1) E:T ratio vs WT1+ allo APC with restricting HLA allele loaded with WT1 peptide (HLA-A0201): 21% | Cytotoxic CTL response, % (at 50:1) E:T ratio vs WT1+ allo APC with restricting HLA allele loaded with WT1 peptide (HLA-A0101): 19%

PSCLESQPA [WT1 135-143 PSCLESQPA]
Cytotoxic CTL response, % (at 50:1) E:T ratio vs WT1+ allo APC with restricting HLA allele loaded with WT1 peptide (HLA-B3501): 21%

SAYGSLGGP [WT1 46-54 SAYGSLGGP]
Cytotoxic CTL response, % (at 50:1) E:T ratio vs WT1+ allo APC with restricting HLA allele loaded with WT1 peptide (HLA-A0201): 31% | Cytotoxic CTL response, % (at 50:1) E:T ratio vs WT1+ allo APC with restricting HLA allele loaded with WT1 peptide (HLA-B4001): 24%

RDLNALLPAV [WT1 6-15 RDLNALLPAV]
Cytotoxic CTL response, % (at 50:1) E:T ratio vs WT1+ allo APC with restricting HLA allele loaded with WT1 peptide (HLA-A0201): 31% | Cytotoxic CTL response, % (at 50:1) E:T ratio vs WT1+ allo APC with restricting HLA allele loaded with WT1 peptide (HLA-B5701): 22%

RQRPHPGAL [WT1 (-125)-(-117) RQRPHPGAL]
Cytotoxic CTL response, % (at 50:1) E:T ratio vs WT1+ allo APC with restricting HLA allele loaded with WT1 peptide (HLA-B0702): 53%

NMHQRNHTKL [WT1 436-445 NMHQRNHTKL]
Cytotoxic CTL response, % (at 50:1) E:T ratio vs WT1+ allo APC with restricting HLA allele loaded with WT1 peptide (HLA-A2402): 27% | Cytotoxic CTL response, % (at 50:1) E:T ratio vs WT1+ allo APC with restricting HLA allele loaded with WT1 peptide (HLA-A0201): 32% | Cytotoxic CTL response, % (at 50:1) E:T ratio vs WT1+ allo APC with restricting HLA allele loaded with WT1 peptide (HLA-B4001): 26%

LDFAPPGASAY [WT1 38-48 LDFAPPGASAY]
Cytotoxic CTL response, % (at 50:1) E:T ratio vs WT1+ allo APC with restricting HLA allele loaded with WT1 peptide (HLA-DRB10402): 71%

RKFSRSDHL [WT1 390-398 RKFSRSDHL]
Cytotoxic CTL response, % (at 50:1) E:T ratio vs WT1+ allo APC with restricting HLA allele loaded with WT1 peptide (HLA-A0201): 27%

KRPFMCAYPGC [WT1 320-334 KRPFMCAYPGC]
Cytotoxic CTL response, % (at 50:1) E:T ratio vs WT1+ allo APC with restricting HLA allele loaded with WT1 peptide (HLA-DRB10401): 0%

NLYQMTSQLE [WT1 225-233 NLYQMTSQLE]
Cytotoxic CTL response, % (at 50:1) E:T ratio vs WT1+ allo APC with restricting HLA allele loaded with WT1 peptide (HLA-A0201): 28%

ACRYGPFGP [WT1 106-114 ACRYGPFGP]
Cytotoxic CTL response, % (at 50:1) E:T ratio vs WT1+ allo APC with restricting HLA allele loaded with WT1 peptide (HLA-B4402): 23%

TDSCTGSQA [WT1 206-214 TDSCTGSQA]
Cytotoxic CTL response, % (at 50:1) E:T ratio vs WT1+ allo APC with restricting HLA allele loaded with WT1 peptide (HLA-B3802): 53% | Cytotoxic CTL response, % (at 50:1) E:T ratio vs WT1+ allo APC with restricting HLA allele loaded with WT1 peptide (HLA-B4402): 88%

GALRNPTAC [WT1 (-119)-(-111) GALRNPTAC]
Cytotoxic CTL response, % (at 50:1) E:T ratio vs WT1+ allo APC with restricting HLA allele loaded with WT1 peptide (HLA-B0702): 22%

PGCLQQPEQ [WT1 (-47)-(-39) PGCLQQPEQ]
Cytotoxic CTL response, % (at 50:1) E:T ratio vs WT1+ allo APC with restricting HLA allele loaded with WT1 peptide (HLA-A0201): 27% | Cytotoxic CTL response, % (at 50:1) E:T ratio vs WT1+ allo APC with restricting HLA allele loaded with WT1 peptide (HLA-B4701): 25%

ASGSEPQQM [WT1 (-8)-(1) ASGSEPQQM]
Cytotoxic CTL response, % (at 50:1) E:T ratio vs WT1+ allo APC with restricting HLA allele loaded with WT1 peptide (HLA-B3501): 51%

GAAQWAPVL [WT1 30-38 GAAQWAPVL]
Cytotoxic CTL response, % (at 50:1) E:T ratio vs WT1+ allo APC with restricting HLA allele loaded with WT1 peptide (HLA-B3901): 19%

KLGAAEASA [WT1 (-27)-(-19) KLGAAEASA]
Cytotoxic CTL response, % (at 50:1) E:T ratio vs WT1+ allo APC with restricting HLA allele loaded with WT1 peptide (HLA-A0201): 22%

LKTHTTRTHT [WT1 398-406 …]
Cytotoxic CTL response, % (at 50:1) E:T ratio vs WT1+ allo APC with restricting HLA allele loaded with WT1 peptide (HLA-A0201): 22%

PLPHFPPSL [WT1 (-110)-(-102) PLPHFPPSL]
Cytotoxic CTL response, % (at 50:1) E:T ratio vs WT1+ allo APC with restricting HLA allele loaded with WT1 peptide (HLA-A0201): 24%

CHTPTDSCT [WT1 202-210 CHTPTDSCT]
Cytotoxic CTL response, % (at 50:1) E:T ratio vs WT1+ allo APC with restricting HLA allele loaded with WT1 peptide (HLA-B4402): 19%

WNQMNLGATLK [WT1 238-248 WNQMNLGATLK]
Cytotoxic CTL response, % (at 50:1) E:T ratio vs WT1+ allo APC with restricting HLA allele loaded with WT1 peptide (HLA-DRB11104): 1%

THSPTHPPR [WT1 (-99)-(-91) THSPTHPPR]
Cytotoxic CTL response, % (at 50:1) E:T ratio vs WT1+ allo APC with restricting HLA allele loaded with WT1 peptide (HLA-A0201): 21% | Cytotoxic CTL response, % (at 50:1) E:T ratio vs WT1+ allo APC with restricting HLA allele loaded with WT1 peptide (HLA-B4001): 31%

HSFKHEDPM [WT1 174-182 HSFKHEDPM]
Cytotoxic CTL response, % (at 50:1) E:T ratio vs WT1+ allo APC with restricting HLA allele loaded with WT1 peptide (HLA-B3501): 63%

HFPPSLPPT [WT1 (-107)-(-99) HFPPSLPPT]
Cytotoxic CTL response, % (at 50:1) E:T ratio vs WT1+ allo APC with restricting HLA allele loaded with WT1 peptide (HLA-A3101): 27%

AILDFLLLQ [WT1 (-75)-(-67) AILDFLLLQ]
Cytotoxic CTL response, % (at 50:1) E:T ratio vs WT1+ allo APC with restricting HLA allele loaded with WT1 peptide (HLA-A0201): 17%

LGATLKGVAA [WT1 243-252 LGATLKGVAA]
Cytotoxic CTL response, % (at 50:1) E:T ratio vs WT1+ allo APC with restricting HLA allele loaded with WT1 peptide (HLA-A0203): 21%

GYESDNHTT [WT1 269-278 GYESDNHTT]
Cytotoxic CTL response, % (at 50:1) E:T ratio vs WT1+ allo APC with restricting HLA allele loaded with WT1 peptide (HLA-B3501): 23% | Cytotoxic CTL response, % (at 50:1) E:T ratio vs WT1+ allo APC with restricting HLA allele loaded with WT1 peptide (HLA-A0101): 26%

FMCAYPGCNK [WT1 323-332 FMCAYPGCNK]
Cytotoxic CTL response, % (at 50:1) E:T ratio vs WT1+ allo APC with restricting HLA allele loaded with WT1 peptide (HLA-B3501): 61% | Cytotoxic CTL response, % (at 50:1) E:T ratio vs WT1+ allo APC with restricting HLA allele loaded with WT1 peptide (HLA-A0101): 0%

SGQARMFPN [WT1 122-130 SGQARMFPN]
Cytotoxic CTL response, % (at 50:1) E:T ratio vs WT1+ allo APC with restricting HLA allele loaded with WT1 peptide (HLA-B3503): 41% | Cytotoxic CTL response, % (at 50:1) E:T ratio vs WT1+ allo APC with restricting HLA allele loaded with WT1 peptide (HLA-C0401): 41%

TLGVAAGS [WT1 246-253 TLGVAAGS]
Cytotoxic CTL response, % (at 50:1) E:T ratio vs WT1+ allo APC with restricting HLA allele loaded with WT1 peptide (HLA-A6901): 57%
